Assay results taken from patent US20140303356A1.
Read-outs that look alike come from different tables or passages of the source.

How the values were obtained:
[1] = target: CD20 on Daudi and Raji cells (UniProt P11836)
[2] = target: IgG1-7D8-K409A (human) [IgG part: P01857]; assay: cell-based or functional assay
[3] = target: IgG1-7D8-K409G (human) [IgG part: P01857]; assay: cell-based or functional assay
[4] = target: IgG1-7D8-K409H (human) [IgG part: P01857]; assay: cell-based or functional assay
[5] = target: IgG1-7D8-K409R (human) [IgG part: P01857]; assay: cell-based or functional assay
[6] = target: CH2-CH3 construct G4-F405L (human); assay: native MS, monomer-dimer equilibrium of CH2-CH3 fragment
[7] = target: CH2-CH3 construct G4-R409L (human); assay: as above
[8] = target: CH2-CH3 construct G4-S364D (human); assay: as above
[9] = target: CH2-CH3 construct G4-E357T (human); assay: as above
[10] = target: CH2-CH3 construct G1-T350I (human); assay: as above
[11] = target: CH2-CH3 construct G4-F405A (human); assay: as above
[12] = target: CH2-CH3 construct G4-L351K (human); assay: as above
[13] = target: CH2-CH3 construct G4-K370E (human); assay: as above
[14] = target: CH2-CH3 construct G4-R409W (human); assay: as above
[15] = target: CH2-CH3 construct G1 (human); assay: as above
[16] = target: CH2-CH3 construct G4-R409M (human); assay: as above
[17] = target: CH2-CH3 construct G4-R409T (human); assay: as above
[18] = target: CH2-CH3 construct G4 (human); assay: as above
[19] = target: CH2-CH3 construct G4-R409K (human); assay: as above
[20] = target: CD20 on Daudi and Raji cells (UniProt P11836); remark: listed apart in the source
[21] = target: CH2-CH3 construct G4-K370Q (human); assay: native MS, monomer-dimer equilibrium of CH2-CH3 fragment
[22] = target: CH2-CH3 construct G1-K370T (human); assay: as above
[23] = target: recombinant extracellular domain of EGFR (UniProt P00533); assay: sandwich ELISA: EGFR extracellular domain coated, detection with anti-idiotype 2F2 SAB1.1
[24] = target: CH2-CH3 construct G1-K409R (human); assay: native MS, monomer-dimer equilibrium of CH2-CH3 fragment
[25] = target: CH2-CH3 construct G1-K409R (human); assay: native MS, monomer-dimer equilibrium of CH2-CH3 fragment, homodimer
[26] = target: CH2-CH3 construct G4-R409A (human); assay: native MS, monomer-dimer equilibrium of CH2-CH3 fragment

Bispecific binding (% relative to positive control) [2] [%] | Bispecific binding (% relative to positive control) [3] [%] | Bispecific binding (% relative to positive control) [4] [%] | Bispecific binding (% relative to positive control) [5] [%] | Substance | also measured
– | – | – | – | IgG1-7D8-K409R (from UniProt P01857 1-330) (antibody) | EC50 (read off the curve) [1]: 0.4 µg/mL
42 | 51 | 56 | 39 | IgG1-2F8-L368T (antibody) | –
49 | 50 | 54 | 41 | IgG1-2F8-L368D (antibody) | –
– | – | – | – | CH2-CH3 construct G4-F405L | Kd [6]: 25 µM; fold-difference (against wild type CH2-CH3 fragment) [6]: 0.0019 fold
56 | 56 | 60 | 41 | IgG1-2F8-L368W (antibody) | –
34 | 51 | 39 | 45 | IgG1-2F8-F405S (antibody) | Fab-arm exchange compared to the positive control, 20° C., 200 min [2]: 90%; Fab-arm exchange efficiency compared to the positive control, 15° C., 200 min [2]: 65%
– | – | – | – | CH2-CH3 construct G4-R409L | Kd [7]: 15 nM; fold-difference (against wild type CH2-CH3 fragment) [7]: 3.2 fold
46 | 53 | 53 | 44 | IgG1-2F8-L368G (antibody) | –
– | – | – | – | CH2-CH3 construct G4-S364D | Kd [8]: 47 nM; fold-difference (against wild type CH2-CH3 fragment) [8]: 1.02 fold
36 | 46 | 43 | 37 | IgG1-2F8-F405V (antibody) | –
– | – | – | – | CH2-CH3 construct G4-E357T | Kd [9]: 41 µM; fold-difference (against wild type CH2-CH3 fragment) [9]: 0.0012 fold
47 | 52 | 54 | 43 | IgG1-2F8-L368N (antibody) | –
– | – | – | – | CH2-CH3 construct G1-T350I | Kd [10]: 7 nM; fold-difference (against wild type CH2-CH3 fragment) [10]: 0.4 fold
– | – | – | – | CH2-CH3 construct G4-F405A | Kd [11]: 19 µM; fold-difference (against wild type CH2-CH3 fragment) [11]: 0.0025 fold
– | – | – | – | CH2-CH3 construct G4-L351K | Kd [12]: 740 nM; fold-difference (against wild type CH2-CH3 fragment) [12]: 0.06 fold
17 | 20 | 18 | 16 | IgG1-2F8-F405W (antibody) | –
39 | 45 | 53 | 37 | IgG1-2F8-L368S (antibody) | –
– | – | – | – | CH2-CH3 construct G4-K370E | Kd [13]: 2 nM; fold-difference (against wild type CH2-CH3 fragment) [13]: 24 fold
40 | 43 | 46 | 34 | IgG1-2F8-D399K (antibody) | –
– | – | – | – | CH2-CH3 construct G4-R409W | Kd [14]: 34 µM; fold-difference (against wild type CH2-CH3 fragment) [14]: 0.0014 fold
47 | 45 | 52 | 38 | IgG1-2F8-D399R (antibody) | Fab-arm exchange compared to the positive control, 20° C., 200 min [3]: 85%; Fab-arm exchange efficiency compared to the positive control, 15° C., 200 min [3]: 85%
4 | 9 | 44 | 1 | IgG1-2F8-Y407Q (antibody) | –
– | – | – | – | CH2-CH3 construct G1 | Kd [15]: 3 nM; fold-difference (against wild type CH2-CH3 fragment) [15]: 1 fold

Bispecific binding (% relative to positive control) [2] [%] | Bispecific binding (% relative to positive control) [3] [%] | Bispecific binding (% relative to positive control) [4] [%] | Bispecific binding (% relative to positive control) [5] [%] | Substance | also measured
– | – | – | – | CH2-CH3 construct G4-R409M | Kd [16]: 3 nM; fold-difference (against wild type CH2-CH3 fragment) [16]: 16 fold
– | – | – | – | CH2-CH3 construct G4-R409T | Kd [17]: 720 nM; fold-difference (against wild type CH2-CH3 fragment) [17]: 0.07 fold
– | – | – | – | CH2-CH3 construct G4 | Kd [18]: 48 nM; fold-difference (against wild type CH2-CH3 fragment) [18]: 1 fold
– | – | – | – | CH2-CH3 construct G4-R409K | Kd [19]: 8 nM; fold-difference (against wild type CH2-CH3 fragment) [19]: 6 fold
32 | 38 | 42 | 37 | IgG1-2F8-L368E (antibody) | –
29 | 48 | 40 | 47 | IgG1-2F8-F405K (antibody) | –
– | – | – | – | IgG1-7D8 (from UniProt P01857 1-330) (antibody) | EC50 (read off the curve) [1]: 0.5 µg/mL; EC50 (read off the curve) [20]: 1 µg/mL
– | – | – | – | CH2-CH3 construct G4-K370Q | Kd [21]: 11 nM; fold-difference (against wild type CH2-CH3 fragment) [21]: 4.3 fold
32 | 49 | 60 | 39 | IgG1-2F8-F405I (antibody) | –
13 | 15 | 15 | 14 | IgG1-2F8-D399F (antibody) | –
33 | 33 | 37 | 25 | IgG1-2F8-L368A (antibody) | –
48 | 53 | 62 | 47 | IgG1-2F8-Y407W (antibody) | –
42 | 49 | 51 | 33 | IgG1-2F8-L368V (antibody) | –
0 | 0 | 0 | 0 | IgG1-2F8-D399Q (antibody) | –
– | – | – | – | CH2-CH3 construct G1-K370T | Kd [22]: 45 nM; fold-difference (against wild type CH2-CH3 fragment) [22]: 0.07 fold
– | – | – | – | bispecific antibody generated by 2-MEA-induced Fab-arm exchange between IgG1-2F8-F405L and IgG1-7D8-K409R (from UniProt P01857 1-330) | EC50 (read off the curve) [1]: 2 µg/mL; EC50 (read off the curve) [23]: 400 ng/mL
55 | 64 | 91 | 52 | IgG1-2F8-L368R (antibody) | Fab-arm exchange efficiency compared to the positive control, 15° C., 200 min [4]: 100%
12 | 14 | 19 | 10 | IgG1-2F8-D399H (antibody) | –
26 | 25 | 29 | 21 | IgG1-2F8-L368H (antibody) | –
44 | 41 | 49 | 49 | IgG1-2F8-Y407L (antibody) | –
– | – | – | – | CH2-CH3 construct G1-K409R | Kd [24]: 110 nM; fold-difference (against wild type CH2-CH3 fragment) [24]: 0.03 fold; Kd [25]: 110 nM
– | – | – | – | CH2-CH3 construct G4-R409A | Kd [26]: 160 nM; fold-difference (against wild type CH2-CH3 fragment) [26]: 0.3 fold
35 | 47 | 46 | 42 | IgG1-2F8-F405T (antibody) | –
